Measurements taken from the nanobody polyreactivity screen of Harvey et al. (2022).

Assay: yeast display, Sf9 membrane polyspecificity reagent, FACS + sequencing; frameworks hold sequencing errors
In short: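 Nanobodies from a synthetic yeast display library (Saccharomyces cerevisiae BJ5465), induced 36–48 hours with galactose, were stained 1 hour at 4 °C with 10% biotinylated, detergent-solubilized Sf9 membrane reagent, enriched on streptavidin microbeads, then FACS-sorted. Anti-HA (expression) and streptavidin (reagent binding) fluorescence set low and high (top ~1%) gates. Polyreactivity labels come from the gate of origin. Genes were colony-PCR amplified, MiSeq 2 × 250 sequenced and filtered by CDR length.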

Sequence	polyreactivity (PSR sort gate)
QVQLVESGGGLVQAGGSHRVRCAASGRTFSQYDLGWYRQEPGKERELVAAITRSGSRTYYADSVKGRFTISRDNAKNTVYLQMNSLKPEDTAVYYCNARSISRKKGYPPQRRDGYWGQGTQVTVSS	high polyreactivity
QVQLVESGGGLVQAGGSIRLSCAASGFIFQRYSMGWYRQAPGKERELVAAISSSGGSTYYADSVKGRFTISRDNAKNTVYLQMNSLKPEDTAVYYCAARVPPRTLAYYYWGQGTQVTVSS	high polyreactivity
QVQLVESGGGLVQAGGSIRLSCAASGFIIKVYAMGWYRQAPGKERELVAAITWSGGSTYYADSVKGRFTISRDNAKNNVYLQMNSLKPEDTAVYYCNTDAYRYPEYDYWGQGTQVTVSS	low polyreactivity
QVQLVESGGGLVQAGGSIRLSCAASGFTFSQYVMGWYRQAPGKERELVAAISYRGGSTYYADSVKGRFTSARDNAKNTVYLQMNSLQPEDTAVYYGAAVAYSWHNRYDYCGQGTQVTVSS	high polyreactivity
QVQLVESGGGLVQAGGSIRLSCAASGRIFGSYVRGWYRQGPGKESELVAAISRRGGSTYYADSVTWRFTISRDNAKNTVYLQMNSLTPEDTAVYYCAAEFSPSSNPYDYWGQGTQVTVSS	high polyreactivity
QVQLVESGGGLVQAGGSIRLSCAASGRTFGYYAMGWYRQAPGKERELVAAITRTGGSTHYADSVKGRFTISRDNAKNTVYLQMNSLKPEDTAVYYCALDYRYTIPYDYWGQGTQVTVSS	low polyreactivity
QVQLVESGGGLVQAGGSIRLSCAASGSIFWYNAMGWYRQAPGKERELVAGITSGGDTNYADSVKGRFTISRDNAKNTVYLQMNRLKPEDTAVYYCAKRWDGGRRYDYWGQGTQVTVSS	low polyreactivity
QVQLVESGGGLVQAGGSIRLSCAASGSISAEKSMGRDRQAPGKERELVAAITSGGSTDYADSVKGRFTISRDNAKNNVYLQMNSLKPVDTAVSYCAASGRVGPGYWYDYWGQGTQVTVSS	low polyreactivity
QVQLVESGGGLVQAGGSIRLSCAASGSISPQNVMGWYRQAHGKERELVAAITGGGSTNYADSVKGRFTISRDNAKNTVYLQMNSLIPEDTAVYYCAADGRYAYGYNHWGQGTQVTVSS	low polyreactivity
QVQLVESGGGLVQAGGSIRLSCAASGSSFVSYAMGWYRQAPGKERELVATISWRGGSTYYADSVKGRFTISRDNAMNTVYLQMNSLKTEDTAVYYCAADVWHSQYYYGYEYWGQGTQVTVSS	low polyreactivity
QVQLVESGGGLVQAGGSIRLSCAASGSTFCVNAMGWDRQAPGKERELVAVITFTGSRTYYADSVKGRFTISRDNAKNTVYLQMNSLKPEDTAVYYCAADRRRVLYKFDYWGQGTQVTVSS	low polyreactivity
QVQLVESGGGLVQAGGSIRLSCAASGSTFRLYARGWYRQAPGKEREFVAAISFRGGSTYYADSVKGRFTISRDYSKNTVYLQMNSLKPEDTAVYYCNADYYYYYSWFNYWGQGTQVTVSS	high polyreactivity
QVQLVESGGGLVQAGGSIRLSCAASGSTIGKNVMGWYRQAPGKERELVAAISARGGRTYYGDSVKGRFTISRDNAKNTVYLQMNSLKPVDTAVYYCNTERSYTGTGRYHSSTAYGYWGQGTQVTVSS	high polyreactivity
QVQLVESGGGLVQAGGSIRLSCAASGSTSYIKVMGWYRQAPGKEREMVATISSSGGNTYYADSVKGRFTISRDNAKNTVYLQMNSLKPEDTAVYYCAAKVRVWYYRMDSWGQCTQVTVSS	low polyreactivity
QVQLVESGGGLVQAGGSIRLSFPASGRTFAYNAMGRYRPAPGKERELVADITSGGSTYYADSVKGRFTISRENAKNTVYLQMNRLKREDTAVYYCAAYPQFWYWDYNYWGQGTQVTVSS	high polyreactivity
QVQLVESGGGLVQAGGSIRLTCAASGRIYEIYTMGWYRQATGKETEFVAGITWSGGSTYYADSVKGRFTISRDNAKNTFYLQMNSLKPEDTAVYYCATDEVYWTGYAPSLFDYWGQGTQVTVSS	low polyreactivity
QVQLVESGGGLVQAGGSIRLTCAASGSIFVFYAMGWYRQAPGKEREFVATITWSGTSTYYADSVKGRFSISRDNAKNTVYLQMNSLKPEDTAVYYCAARYLGGRRSGDYSRYYWGQGTQVTVSS	high polyreactivity
QVQLVESGGGLVQAGGSIRLTCTPSGIIFGTYAMGWYIQAPGKERELVAAISSSGVSTYYADSVKGRFTISRDNAKNTVYLQMNSLKPEDTAVYYCNARGSNGRSDYDYWGQCTQVTVSS	high polyreactivity
QVQLVESGGGLVQAGGSLCLSCAASGIFVYNAMVWYRQAPGKEREFVAAINKSGASTFYADSVKGRFTISRDNAKNTVYLQMNSLKPEDTAVYYCRERDYWGQGTQVTVSS	low polyreactivity
QVQLVESGGGLVQAGGSLGLSCAASGFTFDLYAMGWYRQAPGKERALVAAISWSGGSTRYADSVKGRFTISRDYAKNTVYLQMNSLKPEDTAVYYCARQPRLYFKGKLYGYWGQGTQVTVSS	high polyreactivity
QVQLVESGGGLVQAGGSLGLSCAASGFTFHNYAMGWYRQAPGKERELVAAITWDGGSTYYAVSVKGRFTISRDKAKNTVDLQMNSLKPEDTAVYYCALDPYYYYYGDYNFDYWGQGTQVTVSS	high polyreactivity
QVQLVESGGGLVQAGGSLGLSCAASGRSLIWYAMGWYRQAPGKERELVAAITSGGRTYYADSVKGRFTISRDNAKKTVYLQMNSLKPEDTAVYYCNKVGRDPGRDFWGQGTQVPVSS	high polyreactivity

Sequence	polyreactivity (PSR sort gate)
QVQLVESGGGLVQAGGSLGLSCAASGRTFANNAMGWYRQAPGKERELVARISNSGSTNYADSVKGRFTISRDNAKNTVYLQMNSLKPEDTAVYDCAARIVRLYSRYDYWGQGTQETVSS	low polyreactivity
QVQLVESGGGLVQAGGSLGLSCAASGRTFQQNAMGWYRQAPGKERELVAALNSRGGRTYYADYVKGRFTISRDNAKNTVYLQMNSLKPEDTAVYYCAARYYWGQGTEVTVSS	high polyreactivity
QVQLVESGGGLVQAGGSLGLSCAASGRTFSYYAMGWYRQAPGKERELVAAISASGGRTYYADSVKGRFTISRDNAKNTDYLQMNSLTPEDTAVYYCAAGSYQRYAFDYWGQGTQVTVSS	high polyreactivity
QVQLVESGGGLVQAGGSLGLSCAASGSIFSRNTMGWYRPARGKERELVAAITSSGGNTYYADSVKGRFTISRDNAKNTVYLQMNSLKPDDTAVYYCAADVAQVGYQVGDSEIYPGYEDWGQGSQVTVSS	low polyreactivity
QVQLVESGGGLVQAGGSLGLSCAASGYTFDHNAMGWYRQAPGKERELVAAINWSGGSTYYADSVKVRFTISRDNAKNTVYLQMKSLKPEDTAVYYCARYRVLASRVDYWGQGTQVTVSS	high polyreactivity
QVQLVESGGGLVQAGGSLGLSCAATGSIFNPYAMGWYRQAPGKVRELVAAISSTGSTYYADSVKGRFTISRDNAKNTVYLQMISLKPEDTAVYYCAADWYWYWFSTYDYWGQGTEVTVSS	low polyreactivity
QVQLVESGGGLVQAGGSLLLSCAASGFIFGPYALGWYRQAPGKERELVAAITWRGGRTYYADSVKGRFTISRDNAKNTVYLQMNSLKPEDTAVYYCAADYPYAMDYWGQGTQVTVSS	high polyreactivity
QVQLVESGGGLVQAGGSLLLSCAASGFIFPPYDMGWYRQAPGKEMELVAGISDVGTTYYADSVKGRFTISRDNAKNTVYLQMNSLKPEDTAVYYCAAESQGDDQFWTGGYDSWGQGTQVTVSS	low polyreactivity
QVQLVESGGGLVQAGGSLLLSCAASGGTFYYYAMGWYRQAPGKERELVASISSRGGSTYYADSVKGRFTISRDNAKNTVYLQMNSLKPEDTAVYYCAARSLYRGFGYWGQGTQVTVSS	high polyreactivity
QVQLVESGGGLVQAGGSLLLSCAASGGTFYYYTMGWYRQAPGKERELVAAISWSGGSTYYADSVKGRFTISRDNAKNTVYLQMNSLKPEDTAVYYCAALAYVSDYDYWGQGTQVTVSS	high polyreactivity
QVQLVESGGGLVQAGGSLLLSCAASGITFFTYAKGWYRQAPGKERELDAAISGSGGSTYYADSVKGRFTISRDNAKKTVYLQMNSLKPEDTAVYYCAAERENGDHYRYYYWGQGTQVTVSS	low polyreactivity
QVQLVESGGGLVQAGGSLLLSCAASGITFPKYAMGWYRQAPGKERELVAAITKSGGSTYYADSVKGRFTISRDHAKNTVYFQMNSLKPEDTAVYYYAARPRYGEYDYWGQGTQVTVSS	high polyreactivity
QVQLVESGGGLVQAGGSLLLSCAASGRTFAPYAMGWYRQAPGKERELVAAISSGGGNTYYADSVKGRFTISRDNAKITVYLHMNSLKPEDTAVYYCNAAQRRGGLGYSGQGTQVTVSS	high polyreactivity
QVQLVESGGGLVQAGGSLLLSCAASGSIFDFYGMGWDRQAPGKERELVATITGTGGGTYYADSVKGRFTISRDNAKNTVYLKMNSLKPEDTAVYYCAADYPYGYWRGLFYYWGQGTQVTVSS	low polyreactivity
QVQLVESGGGLVQAGGSLLLSCAASGSTCSYYAMGWYRQAPGKERQLVAAINRSGGSTYYADSVMGRFTISRDNAKNTVYVQMNSLKPEDTAVYSCAALRSKTVSYDRYDYWGQGTQVTVSS	high polyreactivity
QVQLVESGGGLVQAGGSLLLSCAASGSTFIWNAMGWYRQAHGKERELVAAISSGGSTYYADSVKGRFTISRDNAKNTVYLQMNSLKPEDTAVYYCAAEYVYNVWEQRYAVYSTDDYWGQGTQVTVSS	low polyreactivity
QVQLVESGGGLVQAGGSLLLSCAASGSTFNDNAMGWYRQAPGKERELVAAIDSGGITNYADSVKGRFTISRDNAKNTVYLQMNSLKPEDTAVYYCAVEGEYLTPSGRYRLDYWGQGTEVTVSS	low polyreactivity
QVQLVESGGGLVQAGGSLLLSCAASGSTFSFYAMGWYRQAPGKERELVAAIDSGGRTKYADSVKGRFTISRDNAKNTVYLQMNSLKPEDTAVYYCAAVFRGLWLYDYWGQGTQVTVSS	low polyreactivity
QVQLVESGGGLVQAGGSLLLSCAASGSTFVVNAMAWYRQAPGKERELVAAIRNSGSTTYADSVKGRFTISRDNAKNTVYLQMNSLKPEDTAVYYCATDISATVTAVQINPYDYWGQGSQVTVSS	low polyreactivity
QVQLVESGGGLVQAGGSLLLSCAASGSTFYKNAMGWYRQAPGKERELVAAISSGGSTYYADSVKGRFTISRDNAKNTVYLQMNSLKPEDTAVYYCAADYYYIVDYWGQGTQVTVSS	high polyreactivity
QVQLVESGGGLVQAGGSLLLSCAASGYIFWSNTMGWYRQAPGKERELVAAISQSTASTYYADSVKGRFTISRDNAKNTVYLQMNSLKPEDTAVYYCAAYYNFGDYEYDYWGQGTQVTVSS	low polyreactivity
